# Test: Storage stability of purified SDH
# Format: physicochemical
# Description: In another preferred embodiment the temperature of the aqueous reaction solution is 20° C. to 40° C., especially 25° C., in the enzymatic conversion. At temperatures of 25° C. the purified SDH has stability of about a week. Thus, temperatures in this range are well-suited for conducting long-term enzyme-catalyzed processes.
# The purified SDH can be stored for about 8 months at −30° C. and the SDH is stable for about 30 days at +4° C.
molecule,measurement,setting,value
"SDH: sorbitol dehydrogenase of Gluconobacter suboxidans DSM 2003, 262 amino acids (SEQ ID No. 1), purified per Example 1 (protein, Gluconobacter suboxydans) MSKKFNGKVCLVTGAGGNIGLATALRLAEEGTAIALLDMNREALEKAEASVREKGVEARSYVCDVTSEEAVIGTVDSVVRDFGKIDFLFNNAGYQGAFAPVQDYPSDDFARVLTINVTGAFHVLKAVSRQMITQNYGRIVNTASMAGVKGPPNMAAYGASKGAIIALTETAALDLAPYNIRVNAISPGYMGPGFMWERQVELQAKVGSQYFSTDPKVVAQQMIGSVPMRRYGDINEIPGVVAFLLGDDSSFMTGVNLPIAGG",stability of purified SDH,at 25° C.,about a week
same,stability of SDH,at +4° C.,about 30 days
same,storage time of purified SDH,at −30° C.,about 8 months
